B1: tOX40.63 (antibody, V domains shown)
VH: QVQLVQSGAEVKKPGASVKVSCKVSGYTLTELSMHWVRQAPGKGLEWMGGFDPEDGETIYAQKFQGRVTMTEDTSTDTAYMELSSLRSEDTAVYYCAANWGSDYYYGMDVWGQGTTVTVSS
VL: AIQLTQSPSSLSASVGDRVTITCRASQGISSALAWYQQKPGKAPKLLIYDASSLESGVPSRFSGSGSGTDFTLTISSLQPEDFATYYCQQFNNYPRTFGQGTKVEIK
notes: human IgHG1 constant domains; kappa; source: ExpiCHO, transiently transfected; quantified in the supernatants
B2: tOX40.24 (antibody, V domains shown)
VH: QVQLVESGGGVVQPGRSLRLSCAASGFTFRSYGMHWVRQAPGKGLEWLAIIWYDGSNKYYADSVKGRLTISRDNSKNTLYLQMNSLRAEDTAVYYCARDTQVAEAGFPHHHYYGMDVWGQGTTVTVSS
VL: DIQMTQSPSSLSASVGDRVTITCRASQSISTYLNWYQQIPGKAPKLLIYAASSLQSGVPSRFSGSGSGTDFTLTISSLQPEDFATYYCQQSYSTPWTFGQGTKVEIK
notes: as for B1
B3: tOX40.19 (S-CL-LN-4) (antibody, V domains shown)
VH: QVQLVESGGGVVQPGRSLRLSCAASGFTFSTYGMHWVRQAPGKGLEWVAVIWYDGSNKYYADSVKGRFTISRDNSKNTLYLQMNSLRAEDTAVYYCARTHYDILTGPNWFDPWGQGTLVTVSS
VL: DIQMTQSPSSLSASVGDRVTITCRASQDIRNDLGWYQQKPGKAPKRLIYAASSLQSGVPSRFSGSGSGTEFTLTISSLQPEDFATYYCLQHNSYPFTFGPGTKVDIK
B4: tOX40.15 (S-S-Sp-6) (antibody, V domains shown)
VH: QVQLVESGGGVVQPGRSLRLSCAASGFTFSSYGMHWVRQAPGKGLEWVAIIWYDGSNKYYADSVKGRFTISRDNSKNTLYLQMNSLRAEDTAVYFCAREGDYYGSGSYYPLDYYYYGMDVWGQGTTVTVSS
VL: DIQLTQSPSFLSASVGDRVTITCRASQGISSYLAWYQQKPGKAPKLLIYAASTLQSGVPSRFSGSGSGTEFTLTISSLQPEDFATYYCQQLNSFPRTFGQGTKVEIK
B5: tOX40.40 (S-CL-LN-7) (antibody, V domains shown)
VH: QVQLVESGGDVVQPGMSLRLSCAASGFTFSDYGMHWVRQAPGKGLEWVAVIWYDGSNKYYEDSVKGRFTISRDNSKNTLYLQMNSLRAEDTAVYYCTRAGFGESGYGMDVWGQGTTVTVSS
VL: DIQMTQSPSSLSASVGDRVTITCRASQGISNYLAWYQQKPGKVPKLLIYAASTLQSGVPSRFSGSGSGTDFTLTISSLQPEDVATYYCQKYHSAPWTFGQGTKVEIK
B6: tOX40.23 (S-CL-LN-8) (antibody, V domains shown)
VH: QVQLVESGGGVVQPGRSLRLSCAASGFTFSNYGMHWVRQAPGKGLEWVAVIWYDGSKKYYADSVKGRFTISRDNSKNTLYLQMNSLRAEDTAVYYCARAGFGESGYGMDVWGQGTTVTVSS
VL: DIQMTQSPSSLSASVGDRVTFTCRASQGINNYLAWYQQKPGKVPKLLIYAASTLQSGVPSRFSGSGSGTDFTLTISSLQPEDVATYYCQKYYSAPWTFGQGTKVEVK
B7: tOX40.39 (S-CL-LN-1) (antibody, V domains shown)
VH: EVQLVESGGGLVQPGGSLRLSCAASGFTFSNYAMTWVRQAPGKGLEWVSTISGSGGSTYYADSVKGRFTISRDNSKNTLYLQMNSLRAEDTAVYYCAKADCGDNCYSFFDYWGQGTLVTVSS
VL: DIQMTQSPSSLSASVGDRVTITCRASQGISNWLAWYQQKPEKAPKSLIYAASSLQSGVPSRFSGSGSGTDFTLTISSLQPEDFATYYCQQYNSYPPTFGRGTKVEIK
B8: tOX40.22 (S-CL-LN-5) (antibody, V domains shown)
VH: QVQLVESGGGVVQPGRSLRLSCAASGFTFSNYGMHWVRQAPGKGLEWVAVIWLDGSNKYYADSVKGRFTISRDNSKNTLYLQMNSLRAEDTAVYYCARAAAGSLYYGMDVWGQGTTVTVSS
VL: DIQMTQSPSSLSASVGDRVTITCRASQGINTWLAWYQQKPEKAPKSLIYAASSLQSGVPSRFSGSGSGTDFTLTISSLQPEDFATYYCQQYYSYPWTFGQGTKVEIR
B9: tOX40.41 (S-CL-LN-9) (antibody, V domains shown)
VH: QVQLQESGPGLVKPSETLSLTCTVSGGSISSYYWSWIRQPPGKGLEWIGYIYYSGSTNYNPSLKSRVTISVDTSKNQFSLKLSSVTAADTAVYYCARYYDILTVWDWFDPWGQGTLVTVSS
VL: DIQMTQSPSSLSASVGDRVTITCRASQGISSWLAWYQQKPGKAPKSLIYAASSLQSGVPSRFSGSGSGTDFTLTISSLQPEDFATYYCQQYNSYPITFGQGTRLEIK
B10: tOX40.37 (S-S-Sp-10/S-CL-Sp-1) (antibody, V domains shown)
VH: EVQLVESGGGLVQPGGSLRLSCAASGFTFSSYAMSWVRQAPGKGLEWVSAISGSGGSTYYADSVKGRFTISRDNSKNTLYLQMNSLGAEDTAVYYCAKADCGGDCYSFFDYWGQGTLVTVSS
VL: DIQMTQSPSSLSASVGDRVTITCRASQGISSWLAWYQQKPEKAPKSLIYAASSLQSGVPSRFSGSGSGTDFTLTISSLQPEDFATYYCQQYNSYPPTFGQGTKVEIK
B11: tOX40.4 (S-S-Sp-1/S-CL-Sp-2) (antibody, V domains shown)
VH: QVQLVQSGAEVKKPGASVKVSCKVSGYTLTELSMHWVRQAPGKGLEWMGGFDPKDGETIYAQKFQGRVTMTEDTSTDTAYMELSSLRSEDTAVYYCSTGYCSTTSCGGFDPWGQGTLVTVSS
VL: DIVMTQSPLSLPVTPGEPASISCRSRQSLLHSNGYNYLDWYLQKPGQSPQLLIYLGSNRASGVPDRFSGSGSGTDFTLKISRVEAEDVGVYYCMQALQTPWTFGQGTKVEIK
B12: tOX40.21 (S-CL-LN-2) (antibody, V domains shown)
VH: QVQLVESGGGVVQPGRSLRLSCAASGFTFSNYGMHWVRQAPGKGLEWVAVIWYDGSNKYYADSVKGRFTISRDNSKNTLYLQMNSLRAEDTAVYYCARNGDSYFDYWGQGTLVTVSS
VL: not shown
B13: tOX40.35 (S-S-Sp-3) (antibody, V domains shown)
VH: QVQLVQSGAEVKKPGASVKVSCKASGYTFTSYGITWVRQAPGQGLEWVGWISAYNGNTNYAQKLQGRVTMTTDTSTSTAYMELRSLRSDDTAVYYCARDFAGGSYYFDYWGQGTLVTVSS
VL: not shown
B14: tOX40.31 (S-CL-LN-11) (antibody, V domains shown)
VH: QVQLQESGPGLVKPSETLSLTCTVSGDSISFYYWSWIRQPPGKGLEWIGCIYYSGSTNYNPSLKSRVTISVDTSKNQFSLKLNSVTAADTAVYYCARRLWFGVFDYWGQGTLVPVSS
VL: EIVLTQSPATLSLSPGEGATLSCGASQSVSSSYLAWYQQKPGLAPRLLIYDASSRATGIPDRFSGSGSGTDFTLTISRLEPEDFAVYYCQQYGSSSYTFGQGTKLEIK

T2 sequence (P43489 29-214): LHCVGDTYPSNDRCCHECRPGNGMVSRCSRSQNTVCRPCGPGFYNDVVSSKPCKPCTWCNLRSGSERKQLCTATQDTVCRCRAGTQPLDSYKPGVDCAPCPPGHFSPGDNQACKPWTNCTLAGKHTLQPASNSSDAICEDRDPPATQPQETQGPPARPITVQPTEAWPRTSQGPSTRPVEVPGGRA

The first experiment deals with T1, human OX40 expressed on Flp-In CHO cells (Homo sapiens, UniProt P43489).
T1 construct: human OX40 (TNFRSF4) recombinantly expressed on the surface of CHO cells; The functional rows used the OX40-expressing Jurkat cells of the Promega kit; also called cell surface OX40; cell surface antigen
T1 sequence (P43489 29-277): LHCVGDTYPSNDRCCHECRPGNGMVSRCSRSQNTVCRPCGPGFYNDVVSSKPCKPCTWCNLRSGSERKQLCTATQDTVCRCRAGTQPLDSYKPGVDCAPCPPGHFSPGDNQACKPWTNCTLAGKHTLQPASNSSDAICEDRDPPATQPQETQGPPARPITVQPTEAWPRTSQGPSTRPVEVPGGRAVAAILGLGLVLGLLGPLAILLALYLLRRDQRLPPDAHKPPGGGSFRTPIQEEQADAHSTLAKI
The experiment is described as follows: flow cytometry on cells; one million CHO cells (1:1 mix of OX40-expressing and PD-1-expressing negative control cells) stained with 1 μg mAb in 100 μL MACS Buffer (DPBS, 0.5% BSA, 2 mM EDTA), 30 min, 4 °C; detected with anti-human IgG Fc-PE. The following applies: partners not purified. (In general: A flow cytometer gives signals particle by particle.)
On to B1, for which the binding result is recorded as “no binding (tested: 1 μg of anti-OX40 mAb in 100 μL)”.

For a further experiment, the target named is T1, human OX40 expressed on Flp-In CHO cells. The experiment is described as follows: cell-based or functional assay.
Conditions: not given
On to B2, for which the “Promega In Vitro Assay EC50 (Agonist): luminescence of OX40-expressing Jurkat cells with FcγRIIB/CHO-K1 cells” value came to 0.024 µg/mL.

Another experiment addresses T2, recombinant His-tagged human OX40 extracellular domain (Homo sapiens, UniProt P43489).
T2 construct: human OX40 (tumor necrosis factor receptor superfamily member 4, TNFRSF4), extracellular domain; also called soluble OX40; OX40-His; source: bought: Acro (OX40-H5224)
The experiment is described as follows: BLI; Octet Red96; 5 μg/mL antibody loaded onto Protein A biosensor, dipped into His-tagged OX40 extracellular domain at 200, 100 and 50 nM or 1600, 800 and 400 nM; 1:1 binding model, global fit. The following applies: one partner purified. Background: Biolayer interferometry detects binding as a change in optical thickness at a sensor tip.
The Kd is a measure of binding affinity in units of concentration. B2: the Kd amounted to 22.9 nM.

The target of a further experiment is T2, recombinant His-tagged human OX40 ….
Assay: not given
Conditions: not given
Consider B3, for which the dissociation constant (Kd) came out at 7.7 nM.
In the case of B4, the Kd was found to be 6 nM.
As to B5, the Kd amounted to 151 nM.
Take B6: the equilibrium dissociation constant (Kd) worked out at 5.2 nM.
On the same count and under the same terms, to B7 belongs 90 nM; to B8, 7.3 nM.
As to B9, the Kd came out at 58.4 nM.
On the same count and under the same terms, to B10 belongs 12.5 nM.
Turning to B11, the dissociation constant Kd turned out to be 9 nM.
Regarding B12, the Kd was determined as 7 nM.
In the case of B13, the Kd was determined as 2.7 nM.
With B14, the Kd came out at 22.4 nM.

Source of the values: publication PMC6640694 (Antibodies, 2019).
